Biological target: complement C3b (UniProt P01024)
Assay: not stated; C3b binding affinity of polymorphic variants, data in Supplementary Table S3

- fold lower C3b binding affinity than the CPV-101 Ile62/Tyr402 variant: 1.5 fold
Substance: moss-produced factor H Val62/His402 variant (from UniProt P08603 19-1231) (natural protein)
